How the values were obtained:
S-R/6P/Omicron BA.1 = S-R/6P/Omicron BA.1 (SARS-CoV-2 Omicron BA.1 (B.1.1.529), S371L | S373P | S375F | K417N | A484 | proline substitution at residue 817 | …); assay: cryo-EM structure; details: both partners purified
S-GSAS/6P/Wildtype = S-GSAS/6P/Wildtype (SARS-CoV-2 hCoV-19/Wuhan/WIV04/2019, UniProt P0DTC2, proline substitution at residue 817 | proline substitution at residue 892 | …); assay: cryo-EM structure; details: both partners purified

Binder	stoichiometry N (S-R/6P/Omicron BA.1)	stoichiometry N (S-GSAS/6P/Wildtype)
YB13-292 Fab (Fab, V domains shown) VH: EVQLVESGGGLVKPGGSLRLSCAASGFSFITYNMNWVRQAPGKGLEWVSSISSNILSSTSYIYYADSVKGRFTISRDDAANSLFLQMNSLRVEDTAQYYCARTRSRSVRNCTSATCPVDAFDLWGQGTMVIVSS VL: DIVLTQSPLSLPVTPGEPASISCRSSQSLLRSNGYNYLDWYLQKPGQSPHLLIYLGSNRASGVPDRFSGSGSGTDFTLKISRVEAEDVGVYYCMQALQTPYTFGQGTNLEIK	3 Fabs per spike trimer (3:3 protomer:Fab)	
R1-32 Fab (Fab, V domains shown) VH: EVQLVESGAEVKKPGSSVKVSCKASGGTFSSYAISWVRQAPGQGLEWMGGIIPILGIANYAQKFQGRVTITADKSTSTAYMELSSLRSEDTAVYYCARENGYSGYGAAANFDLWGRGTLVTVSS VL: QSVLTQPPSVSGAPGQRVTISCTGSSSNIGAGYDVHWYQQLPGTAPKLLIYGNSNRPSGVPDRFSGSKSGTSASLAITGLQAEDEADYYCQSYDSSLSGSVFGGGTKLTVL		3 Fabs per spike trimer (3:3:3)
YB9-258 Fab (Fab, V domains shown) VH: EVQLVESGGGLIQPGGSLRLSCAASGLTVSSNYMHWVRQAPGKGLEWVSVLYAGGSAFYADSVKGRFTISRNNSKNTLYLQMNSLRAEDTAIYYCARGLGDYLDSWGQGTLVTVSS VL: DIQMTQSPSSVSASVGDRVTITCRASQGIGSWLAWYQQKPGKAPQLLIYAASTLQSGVPPRFSGSGSGTDFTLTITSLQPEDFASYYCQQANSVLALTFGGGTKVEIK		3 Fabs per spike trimer (3:3:3)

Reference: publication PMC9951844 (Nature Communications, 2023)
